Assay results reported in article PMC2846270 (Biochemical and biophysical research communications, 2010).

Biological target: the molecule itself
Assay: electron microscopy

B1: Taz1pΔC (C-terminally truncated version of the Taz1 protein) (domain or fragment, S. pombe, UniProt P79005 1-556, looked up)
chain: MISVQSTETIQKVLENEGDQQFDKEVVQNSDSNIETGQISDSLTKAVEERAETESSSNLSNFTTSESESSKPAYCFNSHSQNMAEGSISIPVISHSMNVENEVSTAEGQDSRTGESENDQNAMIVRSIWDIEKASLLVNDCQNIANMAEQKVMMVSAIFSESSKDIVNPESFSERLGKETVKDLYEFNEQLTTKYGLEFRTIFFSYIRKYDAYWCLFEDLEKPLKSIQFFTGLIDLLDNTNKHLTLRSIVLDALLSADEEDSFYGDALVLFEELVIRYFGTDSNPSIDASEFILSCLPYTSLDALNVVCGQVWKSQKICDFLKSTIGNTSNSPLQLRASFPAFVNAVIHFLLEFKNVRRLERKDLSVKGMLYDSDSQQILNRLRERVSGSTAQSADEASGHESDASEDTFSERTLGLNSIDNTEISEVVSLGLVSSALDKITGLLSADNLSETVSQARDFSHTLSKSLKSRAKSLSQKEAANRSKLIAKRGDNLRREASLSSEQDDLSEDFPPVRESDEQESRSGGRSSAMRVSIERSAARSGTRRSQGNPYEGYR
B1: binds.
